Experimental data taken from the DeepSol protein solubility set.

Assay: soluble on expression in E. coli; label from the status in PepcDB or PDB records

| Sequence | soluble on expression in E. coli |
| --- | --- |
| MSLSFSAKVKGEICRYIDISKEEALAQISAIMKVCGTLAFSGRQISFKMTTENPASARLMFTILKDYFDIHAKLMVKKSNSLKKNNIYMVVVTEEMGVKKLLEITGILREIDGIMSLDYHIDENLVDTEEKKKAYIRGAFIGGGSISNPEKTYHLEFVTHSQEYAEDLGKLINTFGLKAKVIQRKNSYIVYIKEGEQIVDLLNIIGAHTALLELENIRIMKEMRNNVNRLVNCETANLSKTVNAAVRQVESIKLIEREIGLARLPKNLREVAELRLTYPEESLKELGEMLEPPVGKSGVNHRLRKIEKIAEELRTGNEGHHHHHH | soluble |
| MENFLHKWFASEYDLYEEDLEKASALVNSHNIRTVVNVMFQHPIFTVNMMAALTSLPEATVRRYLNRFEEQQLIFSDGRMRSKTYYYYNLLDQLR | not soluble |
| MGSDKIHHHHHHMDRQKTSQTVPAGDADDGDDTSVDEKRSPLILTEQVWRKRPAYSSPLPDDKSITLSRWTIPEQPTPVEFRSDGNEDSHIITYSLRQSSVDFWMEGQRVSNGRVTPHAVLMTGPGQPGRAVFYKVFDSIRMYLPQALLAECHEGAYGRPPNQDIVLSHPHFVADQKVRHLVEALVLVDQTDGAMGRIYVDSIGLAIGARLIALHGERRNPVDRSQGLSAWRLRHVIEYIDAHLSSPIGLAELANVAGLSRMHFARRFREVTGQTPHQYVLRCRIMRAQQLLCSPALSVTDIASALAFKTTAHFSTVFRHIVGESPTQWRKRLR | not soluble |
| MCTRVVYSGSNGMVATGRSMDWKTDMHSNLWVFPRGMKRNGETGENSLEWTSRYGSVVTSAFEIASTDGMNEKGLVANLLWLPETEYPVRDKNKPGLAITAWVQYMLDNFATVEEAVAYIDEDTFQVVSDMMPDGSRLATLHLSISDATGDCAIFEYIGGKLTVYHSKEYKVMTNSPTYNKQLALSEYWKSIGGLSFLPGTNRAADRFARASFYINALPETDDERIAVASVFSVVRNASVPYGISTPESPEISTTQWRTVSESKNLRYFFESSLTPNTFWVNLKDFDLSEGAPVFKLSIANGEMYHGNTAKNFKTALPFKFMGVKG | not soluble |
| MGSDKIHHHHHHAAIPISVTKGPDGIKIHCLNSANNPLLGSPAYKNVRIVELEKVPFFQRINNIRKLEMNDDYLFVQTSEKLYTYTLNGELMAEIGRKGEREDDYSELSTFYIDNKKKQITIIDGVQNKLINYNFWGNYMFTDTISEGAFKWCYQTLLINNNQLLNYHGMSMDNTEPYSLFDLTKKEVIKRYFSYQPITLGNYVYPFSWHPMTRADKDIDVIMPLCDTVYTYSAASSSFQPKYIIEMTQKMAPKNKIRKNTPSYSGDLLKLDQQGYFTGFDGIYETDTKILLQYMYGITLGYFLFDKYTKTGSFYLYSQNDKGKTFPFNVIVHSYKNEFVAFGKGKELRSLTHIKDKKVREKIESLGDNSACLIFYELE | not soluble |
| MGSDKIHHHHHHMVKTVNWRDLLEPQTKIRDPLYGYIWVTDDELQIIDTPIFQRLRRVNQLALTKYVYPTAEHSRFVHSLGAMHCATQIFTGILNNTHSYHGIRAIDSANMLRRLRYAALLHDIGHIAFSHAAEKLILNPLQHEHLGQFIIANYSPISSILGEHIKPVISILADSVTQDNRLLHQIISGHLDADRADYLMRDSHACGVKYGEYDFERYMQAFGAINESNELKLFVHERDIFVIESFLVARHHYNMQVPYHRTRMGYDIILGRFLKEFLPKCDDAKLGLTVEEGAYTKVDLQKFEFFDDYSVFNHIKHEARTGNLWANMLLRQGHLCPVYDTTDSVDRGGKVFKKIIRRLKAKNFVEDDDFFQCRKEITASKLISTDEKENSLADTSRETIYVRTKSGKLVDIVKHSNIVRALRPVTIYRIYTSQKRKSEAEAVIADVCRKTQVDRRG | not soluble |
| MGSDKIHHHHHHADIETCTVPGDVLNRDPIIGNDQITLPLKKGTNISKLAPEFTLTPGATINPESGVVRDFSTPQKYVVTSEDGKWKKEYEVTALFSGIPTSYHFENALPVKDKKGNILYYNFQESDAIGNILNWANANEGFNYTGVQAKPEEYPTSPAPDGVQGNCVKLTTKDTGSLGALLKMYIAAGNLFMGSFTLDIGNVLRATKFGVPFTHIPTSFKGYYKYKAGEVFTVKGEPVSGRKDICDIYAVFYETDDKVKSLDGTNVFTSPNLISIARISNAKETEQWTEFNLPFITLPGKTVDSQKLEDGKYNVAIVFSSSIKGDLFEGAAGSTLYIDEVELSYRDIK | not soluble |
| MSLAAPTLTGGKLTVGIQGTHAELGVLLYPGVQMAAVHGLSDLFEVANRIAGEQPQAQLPRLRVSHWQASGELPPVRVHDSLAEAPGALLAVLIPPSLAGFSSHQSSAALMDWLRQQHAAGATLGGVCVGSILLAESGLLDGRSATTHWTSAQAFAERYPQVRLEADKPIVDDGDLITSAGLMAWAELGLRLVNRLLGPSIASATARFLVMEHSASASQCGSNFAPILSHGDGAILKLQHWLQANGAVDVSLPVMAQQAGLEPRTLLRRFRAATGLKPTQYCQHLRVGKARELLEFTNGSIDHIAWTVGYQDPATFRSLFRKITGLAPSEYRNRFGATSTAASREGHHHHHH | soluble |
| MAYSYTEKKRIRKDFSKLPDVMDVPYLLAIQLDSYREFLQAGATKEQFRDVGLHAAFKSVFPIISYSGNAALEYVGYRLGEPAFDVKECVLRGVTFAVPLRVKVRLIIFDRESSNKAIKDIKEQEVYMGEIPLMTENGTFIINGTERVIVSQLHRSPGVFFDHDRGKTHSSGKLLYSARIIPYRGSWLDFEFDPKDCVFVRIDRRRKLPASVLLRALGYSTEEILNAFYATNVFHIKGETLNLELVPQRLRGEVASIDIKDGSGKVIVEQGRRITARHINQLEKAGVSQLEVPFDYLIGRTIAKAIVHPATGEIIAECNTELTLDLLAKVAKAQVVRIETLYTNDIDCGPFISDTLKIDNTSNQLEALVEIYRMMRPGEPPTKEAAETLFGNLFFSAERYDLSAVGRMKFNRRIGRTEIEGPGVLSKEDIIDVLKTLVDIRNGKGIVDDIDHLGNRRVRCVGEMAENQFRVGLVRVERAVKERLSMAESEGLMPQDLINAKPVAAAIKEFFGSSQLSQFMDQNNPLSEITHKRRVSALGPGGLTRERAGFEVRDVHPTHYGRVCPIETPEGPNIGLINSLATYARTNKYGFLESPYRVVKDSLVTDEIVFLSAIEEADHVIAQASATLNEKGQLVDELVAVRHLNEFTVKAPEDVTLMDVSPKQVVSVAASLIPFLEHDDANRALMGSNMQRQAVPTLRADKPLVGTGMERNVARDSGVCVVARRGGVIDSVDASRVVVRVADDEVETGEAGVDIYNLTKYTRSNQNTCINQRPLVSKGDVVARGDILADGPSTDMGELALGQNMRVAFMPWNGFNFEDSICLSERVVQEDRFTTIHIQELTCVARDTKLGPEEITADIPNVGEAALNKLDEAGIVYVGAEVQAGDILVGKVTPKGETQLTPEEKLLRAIFGEKASDVKDTSLRVPTGTKGTVIDVQVFTRDGVERDSRALSIEKMQLDQIRKDLNEEFRIVEGATFERLRAALVGAKAEGGPALKKGTEITDDYLDGLERGQWFKLRMADDALNEQLEKAQAYISDRRQLLDDKFEDKKRKLQQGDDLAPGVLKIVKVYLAIKRRIQPGDKMAGRHGNKGVVSVIMPVEDMPHDANGTPVDIVLNPLGVPSRMNVGQILETHLGLAAKGLGEKINRMLEEQRKVAELRKFLHEIYNEIGGREENLDELGDNEILALAKNLRGGVPMATPVFDGAKEREIKAMLKLADLPESGQMRLFDGRTGNQFERPTTVGYMYMLKLNHLVDDKMHARSTGSYSLVTQQPLGGKAQFGGQRFGEMEVWALEAYGAAYTLQEMLTVKSDDVNGRTKMYKNIVDGDHRMEAGMPESFNVLIKEIRSLG | not soluble |
| SLDSPADNPVDSTASDRPVEGRDRDDEGRARNARPRDGLGRPLPYGANGVPRQPEGVVRAPEATVAEAQRLLDDGKPFHAHEVFEDAWKAGPEEERELWRGMAQLAVGLTHSARGNATGGARLLRRGAGAVTAWAASEAGRERPYGMDLGAVAGWARELAGEVEGGGSVDAAARAPRLRG | not soluble |
| MRNFANYHVDVRRHTSGVVKTICEQCLPTRHNKRDRSLRVNIDTGHCHCYHCGADFYVPDDAEERAKAERQAARKRRAASAVPQHFHRPVFDASKTTLSEATERWLVETRCIPQSVIAGLRITEQEEFMSQSGTKERCVCFNYFEDGKLVNTKFRSGAKNFKMVQGAELIPYNIDSVLGQDTCIIHEGELDAASSLATGFKSVISVPAGANANLSWLDRFMESHFENLKDIIIAVDTDSAGLKLRDELVNRLGAERCRVAVYGPGCKDANEHLVKYGIDSLRIAIEQAEEIPLEGIFTAADLHEDLRALFDNGFGPGAETGWEEMDKICTYERRRLVIVTGIPGAGKSEWLDELVLRLCMRHQWKIAFFSPENNPIVYHLRKLIEKLTGRRFQNGCGMTEGLLLRSEEFLAENVCHIALKGSATPERVLAKARELVLRRGCRIFVFDPVNRFEHTPAPGQSETQYLSNFLNLFTEFATQYNCLVILVAHPRKMNRNPVTNHTPRPDMYDVNGSADFFNKADYGLVVERDKEVGVTRVYVEKVKFKHLGTGGVATFVYDPVSGRYLPCEESQDPSVPPEQRVRNTVNDSSCWLPEKELFE | not soluble |
| MNKPVAIFLMGPTASGKTDLAIALRKQLPVEVISVDSALIYKEMDIGTAKPTAAELAQAPHRLIDILDPKESYSAMHFHADALHAMADITASGRIPLLVGGTMLYYKALLEGLSPLPSANEHIRTEIEAHANQYGWASLHQQLTQIDPLAASRINANDSQRINRALEVFYLTGKNLTELTAQQGECLPYQVLQFAIAPQERAVLHQRIEQRFHKMMELGFLTEVEKLYARGDLHPDLPAIRCVGYRQMWQHLAGEISLDEAIYKGICATRQLAKRQLTWLRGWRSEITWLDSLDPTSSQEKMIQNLEQNFIKLLEHHHHHH | soluble |
| MSLCAPNTGRFLLTGTPLPMLSYRHSFHAGNHADVLKHTVQSLIIESLKEKDKPFLYLDTHAGAGRYQLGSEHAERTGEYLEGIARIWQQDDLPAELEAYINVVKHFNRSGQLRYYPGSPLIARQLLREQDSLQLTELHPSDYPLLRSEFQKDSRARVEKADGFQQLKAKLPPVSRRGLILIDPPYEMKTDYQAVVSGIAEGYKRFATGTYALWYPVVLRQQIKRMIHDLEATGIRKILQIELAVLPDSDRRGMTASGMIVINPPWKLEQQMNNVLPWLHSKLVPAGTGHATVSWIVPEEGHHHHHH | soluble |
| MEKKPWEEDISIEEFKKSLNKDKITNLIIKRRWNKGKSTYHLSFNGDFEVVTKKPSTKYVTHKQLDQKLKEFKQDLMVELHDTFATKADLRDSEARINQKLEALVQVVLLHGEQINKLTQIVEKQGEQIRELQVEQKAQRQEFNARMDRLENLLVESIESTNKRFDSIEGRLDSMDSRLDSMENRLDSIEGRLDSVEGRLDSVEGRLDSMENRLDSMETRLDKIDPPK | soluble |
| SLGWIKRLIRMVFQQVGVSMQSVLWSRKPYGSSRSIVRKIGTNLSLIQCPRVQFQINSHATEWSPSHPGEDAVASFADVGWVAKEEGECSARLRTEVRSRPPLQDDLLFFEKAPSRQISLPDLSQEEPQLKTPARANEEALQKICALENELAALRAQIAKIVTQQEQQNLTAGDLDSTTFGTIPPHPPPPPPPLPPPALGLHQSTSAVDLIKERREKRANAGKTLVKNNPKKPEMPNMLEILKEMNSVKLRSVKRSEQDVKPKPVDATDPAALIAEALKKKFAYRYRSDSQDEVEKGIPKSESEATSERVLFGPHMLKPTGKMKALIENVSDS | not soluble |
| MNPYQAHRIKKLKYQLENAESYEEWKSTALQLDEETGLQEWKYDNCSAYFDAELISYRLNLLRKYRLQQRVMDSVYLLQEGLTHDIANIGHPMLFAATYVGTKQIIEDYIEEVSLSLAFIAASQCQTLTVAEKLKFFKNCQKTYGLEHHHHHH | not soluble |
| MSLKANFYKNRVCLNVLAGSVDNAADIYDAAEGHVLVGVLSKNYPDVDTAVEDMKKYSEVTNNAVSVGLGAGDPNQSMMVSLISQHVQPQHINQVFTGVATSRALAGQDKSIVNGLISPTGTVGMVKISTGPLSSRSEDAIVPVETAIAMLKDMGGSSVKYFPMGGLETREEFACVAKACADKDFWLEPTGGIDLENYEEIMQIALDAGVSKIIPHIYSSIIDKATGNTRPEDVKTLLDMTKKLLN | soluble |
